# Measurements published in PMC7884711, “Identification of efficient prokaryotic cell-penetrating peptides with applications in bacterial biotechnology” (Communications Biology, 2021).
# Where no end group is shown, it is not given here.
# Columns and labels:
# E. coli DH5α cells [1] = assay: Penetration efficiency of TAMRA-labeled CPPs, electroporation-based method, flow cytometry; assay type: cell-based, Escherichia coli; conditions: electrocompetent E. coli DH5α, 5 μg TAMRA-CPP, electroporation 1.8 kV; for Cell penetration efficiency (TAMRA fluorescence), Electrooration - Tris buffer: 20 mM Tris-HCl pH 7.5, 1 h; for Cell penetration efficiency (TAMRA fluorescence), Electrooration - DW: distilled water, 1 h
# From the text: (§1) (Fig. 2a). […] First, we prepared electrocompetent and chemically competent cells.
# E. coli DH5α cells [2] = assay: Penetration efficiency of TAMRA-labeled CPPs, chemical (CaCl2) treatment method, flow cytometry; assay type: cell-based, Escherichia coli; conditions: for Cell penetration efficiency (TAMRA fluorescence), Chemical (CaCl2) method - Tris buffer / Cell penetration efficiency (TAMRA fluorescence), Chemical (CaCl2) method - DW: 50 mM CaCl2-treated E. coli DH5α, 5 μg TAMRA-CPP; for Cell penetration efficiency (TAMRA fluorescence), Chemical (CaCl2) method - Tris buffer: 20 mM Tris-Cl pH 7.5, 1 h; for Cell penetration efficiency (TAMRA fluorescence), Chemical (CaCl2) method - DW: 5 × 10^7 cells/50 μL, distilled water, 1 h; for Penetration efficiency (TAMRA FI): TAMRA fluorescence intensity in E. coli, library screen of 98 CPPs
# From the text: as §1
# E. coli DH5α cells [3] = assay: Inhibition of bacterial cell growth by CPPs (Max OD600 relative to control); assay type: cell-based, Escherichia coli; conditions: for Max OD (%) (Figure 3f): E. coli DH5α diluted 1/1000 in LB, 5 μg TAMRA-CPP (0.1 μg/μL), OD600 monitored 18 h, max OD of treated cells / max OD of control cells; for Growth rate (%): E. coli growth with CPP, relative to control; for Anti-bacterial activity: class (Cytotoxic / Safe), cutoff of 50%
# Method: E. coli DH5α cells were grown until OD600 = 1 at 37 °C with shaking at 200 rpm. […] Then, cell growth (OD600) was monitored for 18 h by using the Synergy^TM H1 hybrid multi-mode microplate reader (BioTek, Vermont, USA). As a control, we used E. coli cells that were not treated with CPPs.
# E. coli DH5α cells [4] = assay: Penetration efficiency of TAMRA-labeled CPPs, non-treated cells (control method), flow cytometry; conditions: 5 μg TAMRA-labeled CPP (0.1 μg/μL), 1 h, PBS washes
# Method: For the evaluation and optimization of the electroporation-based method, five efficient CPPs were selected from the previous reports[45],[46] […] The CPP were labeled with TAMRA to trace their penetration into the cytoplasm. First, we prepared electrocompetent and chemically competent cells[46]. As a negative control, we also prepared non-treated cells. After treating the five TAMRA-labeled CPP peptides, either distilled water or 20 mM Tris-Cl (pH = 7.5) was added as a buffer to the E. coli–CPP mixture and incubated at 37 °C for 1 h. After washing the cells, their fluorescence intensities were measured by flow cytometry to quantify CPP delivery efficiency.
# Prepared cells at a density of 5 × 10^7 cells/50 μL were treated with 5 μg of TAMRA-labeled CPPs (0.1 μg/μL) and incubated for 1 h at room temperature. After incubation, the cells were washed with 1 × PBS and centrifuged at 7000 rpm for 10 min three times to remove extracellular CPPs.
# Then, the cells were washed with 1 × PBS and centrifuged at 7000 rpm for 10 min three times. The fluorescence intensity of the CPPs in E. coli cells was quantitatively measured using a Guava EasyCyte flow cytometer (Millipore, Darmstadt, Germany) with an excitation wavelength of 547 nm and an emission wavelength of 580 nm.
# [5] = tested on: E. coli carrying target plasmid with I-SceI recognition site; assay: Plasmid removal assay using CPP-conjugated I-SceI; assay type: cell-based, Escherichia coli
# From the text: To investigate the applicability of CPPs in plasmid removal using a CPP-conjugated I-SceI restriction enzyme, we constructed three different target plasmids containing a different replication origin: a pSC101 origin (low-copy number), ColE1 origin (mid-copy number), and RSF1030 origin (high-copy number). Then, an I-SceI recognition site was inserted into the target plasmids. In addition, for the selection of plasmid-containing cells and counterselection of plasmid-free cells, the tetA gene (tetracycline resistance gene) was introduced into the target plasmids. The selection and counterselection were conducted by using tetracycline and NiCl2, respectively.
# For the plasmid removal experiment, three E. coli strains carrying a target plasmid with a different replication origin were prepared. The plasmids contained an I-SceI restriction site and a replication origin (pSC101, ColE1, or RSF1030). […] Then, the buffer was replaced with 1 × CutSmart buffer, because I-SceI requires the Mg^2+ included in the CutSmart buffer[64] as a cofactor. The cells were further incubated at 37 °C for 2 h and then spread on LB agar plates containing 2 mM NiCl2. The colonies grown on NiCl2-containing plates were transferred to an LB agar plate and a tetracycline-containing LB agar plate in order to confirm whether the plasmids were completely removed from the cells.
Molecule,"Cell penetration efficiency (TAMRA fluorescence), Electrooration - Tris buffer (E. coli DH5α cells [1]; replicate 1)","Cell penetration efficiency (TAMRA fluorescence), Electrooration - Tris buffer (E. coli DH5α cells [1]; replicate 2)","Cell penetration efficiency (TAMRA fluorescence), Electrooration - Tris buffer (E. coli DH5α cells [1]; replicate 3)","Cell penetration efficiency (TAMRA fluorescence), Electrooration - DW (E. coli DH5α cells [1]; replicate 1)","Cell penetration efficiency (TAMRA fluorescence), Electrooration - DW (E. coli DH5α cells [1]; replicate 2)","Cell penetration efficiency (TAMRA fluorescence), Electrooration - DW (E. coli DH5α cells [1]; replicate 3)","Cell penetration efficiency (TAMRA fluorescence), Chemical (CaCl2) method - Tris buffer (E. coli DH5α cells [2]; replicate 1)","Cell penetration efficiency (TAMRA fluorescence), Chemical (CaCl2) method - Tris buffer (E. coli DH5α cells [2]; replicate 2)","Cell penetration efficiency (TAMRA fluorescence), Chemical (CaCl2) method - Tris buffer (E. coli DH5α cells [2]; replicate 3)","Cell penetration efficiency (TAMRA fluorescence), Chemical (CaCl2) method - DW (E. coli DH5α cells [2]; replicate 1)","Cell penetration efficiency (TAMRA fluorescence), Chemical (CaCl2) method - DW (E. coli DH5α cells [2]; replicate 2)","Cell penetration efficiency (TAMRA fluorescence), Chemical (CaCl2) method - DW (E. coli DH5α cells [2]; replicate 3)",Penetration efficiency (TAMRA FI) (E. coli DH5α cells [2]),Max OD (%) (Figure 3f) (E. coli DH5α cells [3]; replicate 1),Max OD (%) (Figure 3f) (E. coli DH5α cells [3]; replicate 2),Max OD (%) (Figure 3f) (E. coli DH5α cells [3]; replicate 3),Growth rate (%) (E. coli DH5α cells [3]),Anti-bacterial activity (E. coli DH5α cells [3]),"Cell penetration efficiency (TAMRA fluorescence), Control (E. coli DH5α cells [4]; replicate 1)","Cell penetration efficiency (TAMRA fluorescence), Control (E. coli DH5α cells [4]; replicate 2)",further results
"Rev(34-50) (TRQARRNRRRRWRERQR; also: TAMRA label, site not given here) [CPP 15]",1419.77 A.U.,1626.5 A.U.,1629.96 A.U.,772.285 A.U.,531.205 A.U.,564.956 A.U.,103.028 A.U.,97.4338 A.U.,68.163 A.U.,228.73 A.U.,679.736 A.U.,805.596 A.U.,1458.36,73.0516%,73.4005%,79.5657%,75.3393%,Safe,29.8568 A.U.,31.0533 A.U.,"Cell penetration efficiency (TAMRA fluorescence), Electrooration - Tris buffer (E. coli DH5α cells [1]; replicate 4): 1157.23 A.U.; Cell penetration efficiency (TAMRA fluorescence), Control (E. coli DH5α cells [4]; replicate 3): 36.163 A.U."
"ppTG1 (GLFKALLKLLKSLWKLLLKA; also: TAMRA label, position not given here) [CPP 16]",299.308 A.U.,307.97 A.U.,322.066 A.U.,116.793 A.U.,316.678 A.U.,302.379 A.U.,251.992 A.U.,38.28 A.U.,55.663 A.U.,201.023 A.U.,237.812 A.U.,176.507 A.U.,130.52,61.1865%,69.0965%,63.3967%,64.5599%,Safe,21.8791 A.U.,18.0245 A.U.,"Cell penetration efficiency (TAMRA fluorescence), Chemical (CaCl2) method - Tris buffer (E. coli DH5α cells [2]; replicate 4): 85.7449 A.U.; Cell penetration efficiency (TAMRA fluorescence), Chemical (CaCl2) method - Tris buffer (E. coli DH5α cells [2]; replicate 5): 220.921 A.U.; Cell penetration efficiency (TAMRA fluorescence), Control (E. coli DH5α cells [4]; replicate 3): 15.0301 A.U."
"R9-TAT (GRRRRRRRRRPPQ; also: TAMRA label, site not given here) [CPP 14]",1652.65 A.U.,2400.94 A.U.,906.944 A.U.,871.282 A.U.,655.834 A.U.,728.231 A.U.,247.778 A.U.,278.483 A.U.,297.356 A.U.,1405.86 A.U.,216.364 A.U.,286.408 A.U.,1704.74,76.3087%,63.2803%,64.6762%,68.0884%,Safe,29.4004 A.U.,32.4749 A.U.,"Cell penetration efficiency (TAMRA fluorescence), Electrooration - Tris buffer (E. coli DH5α cells [1]; replicate 4): 1858.43 A.U.; Cell penetration efficiency (TAMRA fluorescence), Control (E. coli DH5α cells [4]; replicate 3): 29.0426 A.U."
"I-SceI (No CPP): meganuclease I-SceI without CPP, control (protein, UniProt P03882 1-235, looked up) Intron-encoded endonuclease …: MKNIKKNQVMNLGPNSKLLKEYKSQLIELNIEQFEAGIGLILGDAYIRSRDEGKTYCMQFEWKNKAYMDHVCLLYDQWVLSPPHKKERVNHLGNLVITWGAQTFKHQAFNKLANLFIVNNKKTIPNNLVENYLTPMSLAYWFMDDGGKWDYNKNSTNKSIVLNTQSFTFEEVEYLVKGLRNKFQLNCYVKINKNKPIIYIDSMSYLIFYNLIKPYLIPQMMYKLPNTISSETFLK",,,,,,,,,,,,,,,,,,,,,"Plasmid removal efficiency (%) ([5]; plasmid with ColE1 origin (15–20 copies), same protocol, replicate 1): 19.3%; Plasmid removal efficiency (%) ([5]; plasmid with ColE1 origin (15–20 copies), same protocol, replicate 2): 13.3%; Plasmid removal efficiency (%) ([5]; plasmid with ColE1 origin (15–20 copies), same protocol, replicate 3): 14.8%; Plasmid removal efficiency (%) ([5]; plasmid with RSF1030 origin (>100 copies), same protocol, replicate 1): 17.57%; Plasmid removal efficiency (%) ([5]; plasmid with RSF1030 origin (>100 copies), same protocol, replicate 2): 16.88%; Plasmid removal efficiency (%) ([5]; plasmid with RSF1030 origin (>100 copies), same protocol, replicate 3): 17.79%; Plasmid removal efficiency (%) ([5]; plasmid with pSC101 origin (~5 copies), 50 μL protein (0.05 μg/μL), electroporation, Tris-HCl pH 7.5 3 h, CutSmart 2 h 37 °C, 2 mM NiCl2 selection, replicate 1): 16.6%; Plasmid removal efficiency (%) ([5]; plasmid with pSC101 origin (~5 copies), 50 μL protein (0.05 μg/μL), electroporation, Tris-HCl pH 7.5 3 h, CutSmart 2 h 37 °C, 2 mM NiCl2 selection, replicate 2): 15%; Plasmid removal efficiency (%) ([5]; plasmid with pSC101 origin (~5 copies), 50 μL protein (0.05 μg/μL), electroporation, Tris-HCl pH 7.5 3 h, CutSmart 2 h 37 °C, 2 mM NiCl2 selection, replicate 3): 15.64%"
